Source: patent US20230125550A1 (ARCELLX, published 2023)

T1: recombinant human CD123-Fc (human, UniProt P26951 19-305)
T1 construct: not shown: Fc part of CD123-Fc
T1 sequence: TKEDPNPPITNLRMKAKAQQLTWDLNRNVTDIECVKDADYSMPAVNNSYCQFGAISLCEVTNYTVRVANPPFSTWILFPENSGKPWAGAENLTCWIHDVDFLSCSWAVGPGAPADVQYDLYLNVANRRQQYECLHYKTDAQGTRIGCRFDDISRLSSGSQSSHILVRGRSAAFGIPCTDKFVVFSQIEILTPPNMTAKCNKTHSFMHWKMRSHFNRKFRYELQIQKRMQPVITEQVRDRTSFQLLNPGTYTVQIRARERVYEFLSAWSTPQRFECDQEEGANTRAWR


Target: T1, recombinant human CD123-Fc
Test: phage ELISA, A450 target/A450 IgG1-Fc
How it was run: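 Using VCSM13 helper phage, phage were rescued in 96-well format from single phagemid colonies taken from panning output. Wells were coated with 1.3 microg/ml goat anti-human IgG1-Fc antibody and captured 5 nM recombinant human target or IgG1-Fc before 50 microl of 5×-diluted phage were added, with binding read at 450 nm via HRP-conjugated anti-M13 antibody. Each clone's ELISA ratio is its target-to-IgG1-Fc absorbance, averaged across all screened wells with that clone.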

Row | ELISA_avg | Binder
1 | 3 ratio | SEQ ID NO 669 (designed binder) MGSWNEFWERLDAIEWRLFALGGSEAELAFFELDIAWFEEELQWYKGKGNPEVEALIFEAHAITLELDAYRHN
2 | 8.9 ratio | SEQ ID NO 670 (designed binder) MGSWYEFDARLDAIEERLYALGGSEAELAAFEFEIAGFEEALQWYKGKGNPEVEALLKEAEAITDELYAYRHN
3 | 6.6 ratio | SEQ ID NO 662 (designed binder) MGSWFEFLYRLDAIEDRLWALGGSEAELAEFEQEIAKFESELQSYKGKGNPEVEALEWEAHAIDMELEAYRHN
4 | 3.9 ratio | SEQ ID NO 672 (designed binder) MGSWDEFWDRLDAIEDRLFALGGSEAELADFERVIAWFENDLQEYKGKGNPEVEALDNEADAIRIELHAYRHN
5 | 4.3 ratio | SEQ ID NO 665 (designed binder) MGSWYEFEDRLDAILYRLLALGGSEAELAWFERDIAFFESELQWYKGKGNPEVEALEWEAMAIDDELFAYRHN
6 | 3.9 ratio | SEQ ID NO 663 (designed binder) MGSWLEFEDRLVAIDHRLFALGGSEAELAEFEEEIALFESYLQDYKGKGNPEVEALNWEADAIHAELYAYRHN
7 | 4.7 ratio | SEQ ID NO 661 (designed binder) MGSWYEFFDRLDAIYDRLYALGGSEAELASFEAQIAEFEVELQSYKGKGNPEVEALEWEAWAIDEELYAYRHN
8 | 4.6 ratio | SEQ ID NO 666 (designed binder) MGSWGEFMDRLEAIDYRLWALGGSEAELAWFESDIAEFEQELQMYKGKGNPEVEALWDEAMAIRDELFAYRHN
9 | 4 ratio | SEQ ID NO 667 (designed binder) MGSWEEFDDRLDAIEHRLWALGGSEAELADFEGSIAAFESWLQVYKGKGNPEVEALEAEAEAIADELWAYRHN
10 | 5.1 ratio | SEQ ID NO 664 (designed binder) MGSWYEFESRLDAIVDRLWALGGSEAELAEFEYEIAKFEWELQDYKGKGNPEVEALNWEAGAIEFELYAYRHN
11 | 3.2 ratio | SEQ ID NO 671 (designed binder) MGSWDEFSERLDAIWGRLEALGGSEAELATFEFHIAEFEHELQYYKGKGNPEVEALQGEAAAIINELYAYRHN
12 | 3.3 ratio | SEQ ID NO 674 (designed binder) MGSWEEFTIRLGAIYWRLFALGGSEAELANFEWFIAEFEYELQPYKGKGNPEVEALVIEANAIDGELQAYRHN
13 | 5.6 ratio | SEQ ID NO 673 (designed binder) MGSWDEFDDRLEAIVDRLFALGGSEAELAMFEFEIAQFEHQLQYYKGKGNPEVEALRDEADAIWIELDAYRHN
14 | 3.3 ratio | SEQ ID NO 668 (designed binder) MGSWYEFADRLDAIMDRLVALGGSEAELAYFEWEIAAFEEFLQMYKGKGNPEVEALDEEAEAIKDELMAYRHN

More lines, now with the values behind:

Row | Binder | ELISA_avg
15 | SEQ ID NO 643 (designed binder) MGSWWEFSWRLEAIETRLDALGGSEAELAFFEMDIAWFEQDLQLYKGKGNPEVEALEEEAYAIYEELEAYRHN | 3.3 ratio
16 | SEQ ID NO 656 (designed binder) MGSWEEFEQRLWAIDDRLWALGGSEAELAFFEYEIAEFEMDLQWYKGKGNPEVEALFYEAHAINEELWAYRHN | 5.7 ratio
17 | SEQ ID NO 648 (designed binder) MGSWDEFEERLQAIEYRLWALGGSEAELAWFEEVIAQFEYDLQKYKGKGNPEVEALSTEAQAIQDELWAYRHN | 3.8 ratio
18 | SEQ ID NO 637 (designed binder) MGSWWEFEDRLWAIEQRLDALGGSEAELAVFENSIAKFEDMLQVYKGKGNPEVEALHEEADAIIWELYAYRHN | 4.4 ratio
19 | SEQ ID NO 657 (designed binder) MGSWDEFHQRLAAIGDRLWALGGSEAELAYFEWEIATFEWDLQVYKGKGNPEVEALYFEATAIDEELMAYRHN | 3.7 ratio
20 | SEQ ID NO 639 (designed binder) MGSWWEFLDRLEAIEYRLQALGGSEAELAVFEWEIAMFEDHLQGYKGKGNPEVEALHSEAHAIISELSAYRHN | 3.1 ratio
21 | SEQ ID NO 636 (designed binder) MGSWFEFQWRLEAIEDRLWALGGSEAELAEFETIIAGFEEQLQVYKGKGNPEVEALEEEAMAIQTELHAYRHN | 3.4 ratio
22 | SEQ ID NO 660 (designed binder) MGSWHEFDDRLDAIMSRLDALGGSEAELATFEAEIATFEFVLQLYKGKGNPEVEALLAEAYAIDWELEAYRHN | 7.7 ratio
23 | SEQ ID NO 654 (designed binder) MGSWREFHDRLFAIDGRLWALGGSEAELANFEWDIADFEFELQDYKGKGNPEVEALSWEADAIMQELGAYRHN | 5.6 ratio
24 | SEQ ID NO 659 (designed binder) MGSWDEFDTRLDAIFSRLYALGGSEAELAMFEGEIAEFEGSLQHYKGKGNPEVEALDFEAHAIDEELWAYRHN | 4 ratio
25 | SEQ ID NO 650 (designed binder) MGSWWEFTDRLEAIEDRLWALGGSEAELAHFEDSIAQFEQELQWYKGKGNPEVEALADEADAIESELHAYRHN | 16.6 ratio
26 | SEQ ID NO 642 (designed binder) MGSWYEFEDRLAAIEARLWALGGSEAELADFEEEIAYFEHGLQWYKGKGNPEVEALESEAMAIIDELHAYRHN | 3.8 ratio
27 | SEQ ID NO 640 (designed binder) MGSWAEFEDRLAAIERRLEALGGSEAELADFESSIAWFEPDLQYYKGKGNPEVEALMYEAEAIFSELYAYRHN | 4.2 ratio
28 | SEQ ID NO 646 (designed binder) MGSWFEFEERLEAIIYRLWALGGSEAELAMFEESIAWFESDLQQYKGKGNPEVEALEYEAMAISKELKAYRHN | 3.7 ratio
29 | SEQ ID NO 634 (designed binder) MGSWHEFIWRLDAIEERLWALGGSEAELAWFETEIATFEAQLQDYKGKGNPEVEALEWEAIAIAWELDAYRHN | 3.3 ratio
30 | SEQ ID NO 635 (designed binder) MGSWYEFYWRLEAIEERLWALGGSEAELAEFEKAIATFEDQLQTYKGKGNPEVEALETEALAIHAELEAYRHN | 3.7 ratio
31 | SEQ ID NO 655 (designed binder) MGSWEEFDERLWAISDRLWALGGSEAELAYFEGEIAYFEQNLQTYKGKGNPEVEALQTEALAIDTELWAYRHN | 6.5 ratio
32 | SEQ ID NO 649 (designed binder) MGSWWEFTDRLDAIFDRLWALGGSEAELAAFEESIAIFEQDLQYYKGKGNPEVEALEYEANAIQYELEAYRHN | 7.5 ratio
33 | SEQ ID NO 641 (designed binder) MGSWWEFYDRLTAIEARLWALGGSEAELADFEEGIADFEYDLQDYKGKGNPEVEALFWEAWAIQSELTAYRHN | 3.2 ratio
34 | SEQ ID NO 652 (designed binder) MGSWVEFYNRLDAIENRLWALGGSEAELAFFEELIAQFEFALQDYKGKGNPEVEALEDEADAIWEELMAYRHN | 6.9 ratio
35 | SEQ ID NO 638 (designed binder) MGSWWEFEDRLWAIDRRLMALGGSEAELAVFEQMIAHFEQILQVYKGKGNPEVEALHFEAHAIGMELAAYRHN | 4.6 ratio
36 | SEQ ID NO 644 (designed binder) MGSWEEFFFRLEAIDDRLYALGGSEAELALFEEVIAYFEQDLQWYKGKGNPEVEALYVEAYAIQEELYAYRHN | 3.2 ratio
37 | SEQ ID NO 645 (designed binder) MGSWFEFEERLNAISWRLHALGGSEAELAYFEEDIAWFEDDLQFYKGKGNPEVEALENEAYAIWEELDAYRHN | 13 ratio
38 | SEQ ID NO 651 (designed binder) MGSWVEFFWRLDAIEDRLWALGGSEAELANFEFEIADFEAWLQKYKGKGNPEVEALHSEADAIQLELRAYRHN | 4 ratio
39 | SEQ ID NO 653 (designed binder) MGSWEEFYYRLHAIDNRLWALGGSEAELAYFEWHIADFELELQDYKGKGNPEVEALSEEATAIFEELWAYRHN | 3 ratio
40 | SEQ ID NO 647 (designed binder) MGSWAEFDDRLEAIEYRLHALGGSEAELAWFEEGIAGFEHALQSYKGKGNPEVEALETEAGAINEELWAYRHN | 5.8 ratio
41 | SEQ ID NO 658 (designed binder) MGSWVEFEYRLDAISDRLWALGGSEAELAFFENEIASFESDLQFYKGKGNPEVEALMFEAEAIDDELHAYRHN | 6.5 ratio
